Laboratory results published in article PMC3610634 (PLoS Genetics, 2013).

Target: the molecule itself
Test: solubility assay (sedimentation) + TEM; recombinant fibrils in 50 mM HEPES, pH 7.5; solubility assay 16.000 g, 30 min, 4°C; negative staining with 1% uranyl acetate

B1: recombinant full-length Ure2p fibrils (natural protein, yeast, UniProt P23202 1-354, looked up)
chain: MMNNNGNQVSNLSNALRQVNIGNRNSNTTTDQSNINFEFSTGVNNNNNNNSSSNNNNVQNNNSGRNGSQNNDNENNIKNTLEQHRQQQQAFSDMSHVEYSRITKFFQEQPLEGYTLFSHRSAPNGFKVAIVLSELGFHYNTIFLDFNLGEHRAPEFVSVNPNARVPALIDHGMDNLSIWESGAILLHLVNKYYKETGNPLLWSDDLADQSQINAWLFFQTSGHAPMIGQALHFRYFHSQKIASAVERYTDEVRRVYGVVEMALAERREALVMELDTENAAAYSAGTTPMSQSRFFDYPVWLVGDKLTIADLAFVPWNNVVDRIGINIKIEFPEVYKWTKHMMRRPAVIKALRGE
B1: binds.
